Test results: article PMC10786315 (Proceedings of the National Academy of Sciences of the …, 2024)

Molecular target: the molecule itself
Assay: SEC

B1: LctR (LctP Regulator, CJ1608) (natural protein, C. jejuni, UniProt Q0P820 1-295, looked up)
chain: MKVLIIENEIYLAQSISIKLSDAGYSCEIINSFDEYNGEKYYDIILLSTNTNNFLKAVGQFKHSIIILLISYISTDTVSNPLKLGASDYIQKPFMIEELIRKIKHYQDFRKLSILNKAYQSYIKSRLETIKIPEYNYKKLKLPLILKSNKQSSADAFVFNYANECDITLSFIDLTSTNSVEKVMKLPTENNLLFLSNFQALKAAEKEKLLDFIQNKNVILHTNSNTDDLKINCINLNDNEKNINSNEILTIDEYVKYVIINYQNIFPDTDLSKKLGISRKSLWEKRKKYEISKKK
- stoichiometry N: 2
